{"source": "paper PMC9239176", "about": "“Involvement of the DNA Phosphorothioation System in TorR Binding and Anaerobic TMAO Respiration in Salmonella enterica”", "molecules": {"B1": {"name": "tor box1, PT (dsDNA)", "DNA 1": "CCTGCGCGCGGTCTCTTTCTGTTCATATCT", "DNA 2": "AGATATGAACAGAAAGAGACCGCGCGCAGG", "modifications": "phosphorothioate GpsTTC/GpsAAC"}}, "key": {"[1]": {"system": "Biotin carboxyl carrier protein of acetyl-CoA carboxylase (Salmonella enterica serovar Cerro 87)", "assay": "pull-down LC-MS/MS", "conditions": "EMSA: 50 nM DNA, 20 mM Tris-HCl pH 8.0, 50 mM KCl, 10 mM MgCl2, 5 mM EDTA, 10 mM DTT, 5% glycerol, 28 C 30 min, gel at 4 C, pull-down: cell lysate, 4 C 4 h"}, "[2]": {"system": "DndF (Salmonella enterica serovar Cerro 87)", "assay": "pull-down LC-MS/MS", "conditions": "EMSA: 50 nM DNA, 20 mM Tris-HCl pH 8.0, 50 mM KCl, 10 mM MgCl2, 5 mM EDTA, 10 mM DTT, 5% glycerol, 28 C 30 min, gel at 4 C, pull-down: cell lysate, 4 C 4 h"}, "[3]": {"system": "DndG (Salmonella enterica serovar Cerro 87)", "assay": "pull-down LC-MS/MS", "conditions": "EMSA: 50 nM DNA, 20 mM Tris-HCl pH 8.0, 50 mM KCl, 10 mM MgCl2, 5 mM EDTA, 10 mM DTT, 5% glycerol, 28 C 30 min, gel at 4 C, pull-down: cell lysate, 4 C 4 h"}, "TorR CTD": {"molecular_target": "T1, TorR CTD (Salmonella enterica serovar Cerro 87, UniProt Q8ZKZ5 127-230)", "T1 sequence": "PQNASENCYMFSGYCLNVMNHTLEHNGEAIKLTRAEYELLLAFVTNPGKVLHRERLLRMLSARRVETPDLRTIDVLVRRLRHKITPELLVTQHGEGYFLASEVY", "assay": "EMSA; EMSA: 50 nM DNA, 20 mM Tris-HCl pH 8.0, 50 mM KCl, 10 mM MgCl2, 5 mM EDTA, 10 mM DTT, 5% glycerol, 28 C 30 min, gel at 4 C; pull-down: cell lysate, 4 C 4 h", "conditions": "protein: recombinant; tags: His (pET28a, Ni-NTA)"}, "[4]": {"conditions": "phosphorothioate: strand 1 between G13 and A14, strand 2 between G15 and T16"}}, "data": [{"molecule": "GGCCCACTACGTGAACCATCACCCTAATCA (double strand) [B12]", "values": [{"measurement": "binding signal (normalized spectral count)", "setting": "[1]; [4]", "result": 1.41}, {"measurement": "binding signal (normalized spectral count)", "setting": "[2]; [4]", "result": 20.2}, {"measurement": "binding signal (normalized spectral count)", "setting": "[3]; [4]", "result": 30.9}]}, {"molecule": "GGCCCACTACGTGAACCATCACCCTAATCA (double strand) [B34]", "values": [{"measurement": "binding signal (B34/B12 ratio)", "setting": "[1]", "result": 2.78}, {"measurement": "binding signal (B34/B12 ratio)", "setting": "[2]", "result": 0.43}, {"measurement": "binding signal (B34/B12 ratio)", "setting": "[3]", "result": 0.32}]}, {"molecule": "B1", "values": [{"measurement": "binding result", "setting": "TorR CTD", "result": "binds"}]}]}
